These results are taken from publication PMC7849316, “Tyrosine phosphorylation regulates hnRNPA2 granule protein partitioning and reduces neurodegeneration” (The EMBO Journal, 2020).

Where a chain is given by its changes, count along the chain named. Numbers in names are those of the source.

The test concerns the target T1, ch‐TOG (CKAP5) TOG domain 1 (TOG D1, residues 1–250) (UniProt Q14008 1-250, AlexaFluor 555 or 405 (NHS ester) on ~1% of the protein in the droplet assays; 2H 15N labeled for the PRE experiments).
T1 construct: microtubule-associated protein ch-TOG (CKAP5), TOG domain 1, residues 1–250; also called TOG domain 1 (D1); source: E. coli BL21 Star (DE3), purified (HisTrap, Superdex 75, TEV cleavage, second HisTrap)
The experiment in a line: NMR paramagnetic relaxation enhancement (PRE); TROSY-based 1HN R2 at 850 MHz, 25°C; NMR-invisible hnRNPA2 LC with a paramagnetic label at S285C or S329C mixed with 2H 15N TOG D1; paramagnetic against diamagnetic samples. The note with it: both partners purified.

T1 sequence (Q14008 1-250): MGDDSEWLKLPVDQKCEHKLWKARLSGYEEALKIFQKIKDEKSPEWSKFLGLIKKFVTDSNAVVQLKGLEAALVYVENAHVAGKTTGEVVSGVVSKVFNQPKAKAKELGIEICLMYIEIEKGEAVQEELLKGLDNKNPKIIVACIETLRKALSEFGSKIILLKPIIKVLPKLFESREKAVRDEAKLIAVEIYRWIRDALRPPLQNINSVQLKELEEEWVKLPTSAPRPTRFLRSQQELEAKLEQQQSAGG

B1: hnRNPA2 LC S285C with a paramagnetic label (MTSL) at the engineered cysteine (domain or fragment, human, UniProt P22626-2 190-341, looked up)
chain: GRGGNFGFGDSRGGGGNFGPGPGSNFRGGSDGYGSGRGFGDGYNGYGGGPGGGNFGGSPGYGGGRGGYGGGGPGYGNQGGGYGGGYDNYGGGNYGCGNYNDFGNYNQQPSNYGPMKSGNFGGSRNMGGPYGGGNYGPGGSGGSGGYGGRSRY
modifications: small (~120 Da) paramagnetic label (MTSL) at the engineered cysteine 285
notes: hnRNPA2 low complexity domain, human, residues 190–341; Purified and labeled as described in Ryan et al, 2018; source: E. coli BL21 Star (DE3), purified from inclusion bodies (His-tag purification), MTSL-labeled
B1: the Kd (commonly the free concentration of one partner at which half of the binding sites on the other are occupied at equilibrium, for simple one-to-one binding) is > 100 µM.

B2: hnRNPA2 LC S329C with a paramagnetic label (MTSL) at the engineered cysteine (domain or fragment, human, UniProt P22626-2 190-341, looked up)
chain: B1 chain with C96S, S140C
modifications: small (~120 Da) paramagnetic label (MTSL) at the engineered cysteine 329
notes: as for B1
Take B2: the Kd is > 100 µM.
